B1: c-MET extracellular domain (ECD)/Fc chimera (Fc fusion, not shown: a dimerising Fc or GST)
chain: ECKEALAKSEMNVNMKYQLPNFTAETPIQNVILHEHHIFLGATNYIYVLNEEDLQKVAEYKTGPVLEHPDCFPCQDCSSKANLSGGVWKDNINMALVVDTYYDDQLISCGSVNRGTCQRHVFPHNHTADIQSEVHCIFSPQIEEPSQCPDCVVSALGAKVLSSVKDRFINFFVGNTINSSYFPDHPLHSISVRRLKETKDGFMFLTDQSYIDVLPEFRDSYPIKYVHAFESNNFIYFLTVQRETLDAQTFHTRIIRFCSINSGLHSYMEMPLECILTEKRKKRSTKKEVFNILQAAYVSKPGAQLARQIGASLNDDILFGVFAQSKPDSAEPMDRSAMCAFPIKYVNDFFNKIVNKNNVRCLQHFYGPNHEHCFNRTLLRNSSGCEARRDEYRTEFTTALQRVDLFMGQFSEVLLTSISTFIKGDLTIANLGTSEGRFMQVVVSRSGPSTPHVNFLLDSHPVSPEVIVEHTLNQNGYTLVITGKKITKIPLNGLGCRHFQSCSQCLSAPPFVQCGWCHDKCVRSEECLSGTWTQQICLPAIYKVFPNSAPLEGGTRLTICGWDFGFRRNNKFDLKKTRVLLGNESCTLTLSESTMNTLKCTVGPAMNKHFNMSIIISNGHGTTQYSTFSYVDPVITSISPKYGPMAGGTLLTLTGNYLNSGNSRHISIGGKTCTLKSVSNSILECYTPAQTISTEFAVKLKIDLANRETSIFSYREDPIVYEIHPTKSFISGGSTITGVGKNLNSVSVPRMVINVHEAGRNFTVACQHRSNSEIICCTTPSLQQLNLQLPLKTKAFFMLDGILSKYFDLIYVHNPVFKPFEKPVMISMGNENVLEIKGNDIDPEAVKGEVLKVGNKSCENIHLHSEAVLCTVPNDLLKLNSELNIEWKQAISSTVLGKVIVQPDQNFT

Tests used:
[1] = molecular target: B1; experiment: AlphaScreen competition with bn-HGF for c-MET ECD/Fc, NiNTA-pure
[2] = molecular target: B1; experiment: AlphaScreen competition with bn-HGF for c-MET ECD/Fc, Q-pure
[3] = molecular target: B1; experiment: binding ELISA on c-MET ECD/Fc, NiNTA-pure
[4] = molecular target: recombinant human HGF (human, UniProt P14210 32-728); experiment: cell-based or functional assay
Sequence of recombinant human HGF (P14210 32-728 limits assumed): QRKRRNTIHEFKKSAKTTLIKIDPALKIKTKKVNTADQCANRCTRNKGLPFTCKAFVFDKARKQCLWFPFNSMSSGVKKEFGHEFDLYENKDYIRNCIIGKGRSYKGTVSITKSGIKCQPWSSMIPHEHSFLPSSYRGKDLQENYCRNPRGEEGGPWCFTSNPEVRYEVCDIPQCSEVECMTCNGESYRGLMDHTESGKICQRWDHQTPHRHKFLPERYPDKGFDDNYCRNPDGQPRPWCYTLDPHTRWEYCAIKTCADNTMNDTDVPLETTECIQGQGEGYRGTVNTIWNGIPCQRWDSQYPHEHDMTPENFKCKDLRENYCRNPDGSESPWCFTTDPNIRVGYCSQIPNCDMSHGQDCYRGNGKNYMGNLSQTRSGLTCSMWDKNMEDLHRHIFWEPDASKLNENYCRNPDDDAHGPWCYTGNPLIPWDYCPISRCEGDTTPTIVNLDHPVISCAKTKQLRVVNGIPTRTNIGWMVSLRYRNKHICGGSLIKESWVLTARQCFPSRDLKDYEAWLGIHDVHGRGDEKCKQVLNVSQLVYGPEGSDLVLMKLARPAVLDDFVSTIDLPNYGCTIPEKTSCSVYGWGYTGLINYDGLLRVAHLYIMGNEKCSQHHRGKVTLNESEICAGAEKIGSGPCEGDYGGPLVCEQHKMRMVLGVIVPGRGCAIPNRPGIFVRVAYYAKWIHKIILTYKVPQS

| Binder | IC50 [1] [nM] | IC50 [2] [nM] | Kd [3] [nM] | IC50, inhibition of HGF-induced proliferation of serum-starved A549-SC cells (tritiated thymidine) [4] [nM] |
| --- | --- | --- | --- | --- |
| CLADEFQCHSTKRCVPRHWLCDGVNDCEDGSDEKSCSQDPEFHKVSLQ (designed binder, Assayed protein also bears HA and 6His tags; also called C239) [Anti-c-MET Avimer monomer M13] | 247 | – | – | – |
| CEADEFRCRSTGRCISVDWRCDGVSDCEDSSDEESCESTAPTSLQ (designed binder, Assayed protein also bears HA and 6His tags; also called C381) [Anti-c-MET Avimer monomer M20] | 22 | 186 | 158 | – |
| B1 | – | – | – | 1.73 |
| CVSNEFTCRSTKRCVPQEWVCDGVNDCEDGSDETGCPKHTSLQ (designed binder, Assayed protein also bears HA and 6His tags; also called C382) [Anti-c-MET Avimer monomer M21] | 83 | – | 116 | – |
| CVSNEFTCRSTKRCVPQEWVCDGVNDCEDGSDETGCPKHTSLQ (designed binder, Assayed protein also bears HA and 6His tags; also called C399) [Anti-c-MET Avimer monomer M38] | 50 | 881 | 95 | – |
